Results reported in US20100278829A1, “DUAL INHIBITION OF IMMUNOPHILIN/CYCLOPHILIN FAMILY MEMBERS AND EMMPRIN IMMUNOGLOBULIN RECEPTOR SUPERFAMILY MEMBERS” (priority 2009, published 2010).
Where “and” joins values, the source holds several entries; their conditions need not be identical. Equal values may be shown once.

What was measured:
[1] = system: Human primary skin keratinocytes (Hka); experiment: Cytokine stimulation of Hka, ECL and qRT-PCR readout; type: cell-based
Experimental: Cell stimulation. Primary T-cells, H9 cells and Th22 cells (1×10^6 cells/ml) were stimulated with PMA (1 ng/ml) and lonomycin (500 ng/ml) for 18 hrs at 37° C. HKa were stimulated with TNFα (1 ng/ml), TNFα (10 ng/ml)+PEG sTNF-RI (10 μg/ml), IL-1β (10 ng/ml), IL-1β ng/ml+IL-1ra 10 µg/ml, IL-1β ng /ml+TNFα 10 ng/ml and IL-32α or IL-32β for 24 hrs. Hka were stimulated with activated H9 and primary T-cells for 24 hrs at 37° C. PEGsTNF-RI and IL-1ra was obtained from Amgen (Thousand Oaks, Calif.).
ECL. A polyclonal antibody produced in rabbits against recombinant IL-32γ was used for ECL. IgG was prepared with Econo-Pac and then affinity purified through IL-32-immobilized agarose bead column of Affi-gel 15. An aliquot of the affinity purified anti-IL-32γ antibody was labeled with biotin and another aliquot with ruthenium according to the manufacturer's instructions (BioVeris, Gaithersburg, Md.). […] The liquid-phase ECL method was used to measure TNFα, IL-1β, IL-6, IL-8 and IL-32γ in human primary keratinocytes cell culture media and cell lysates in 0.5% Triton-X. The amount of ECL was determined by using an Origen Analyzer (BioVeris).
Quantitative real-time quantitative polymerase chain reaction (TaqMan) analysis (qRT-PCR). […] The amount of cDNA added to each reaction was held to a relatively narrow range, determined by the measurement of 18S RNA. […]

CD147 Pro211 = biological target: T1, CD147 Pro211 (Homo sapiens, UniProt P35613); experiment: ZZ-exchange NMR of CypA-mediated peptidyl-prolyl isomerization of CD147; type: biochemical; conditions: for kex (s−1), apparent catalytic exchange rate: [CD147^94-214]=0.5 mM
T1 construct: both containing 0.5 mM ^15N-CD147^94-214 at 25° C; made in house
T1 sequence (P35613 94-214 isoform P35613-2): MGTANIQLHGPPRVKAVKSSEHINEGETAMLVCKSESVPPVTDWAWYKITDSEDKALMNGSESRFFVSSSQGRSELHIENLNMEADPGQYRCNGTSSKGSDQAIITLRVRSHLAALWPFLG
Experimental: For ZZ-exchange experiments, the pulse scheme of Farrow et al. was employed with a selective adiabatic CHIRP pulse applied in the center of the mixing period for water suppression. (69) Two data sets were collected at 720 MHz on two samples with either 0.01 or 0.05 mM CypA and both containing 0.5 mM ^15N-CD147^94-214 at 25° C. and analyzed as previously described to calculate the apparent cis/trans exchange rate (kex). […] Equations (1a), (1b), (1c), and (1d) below were used to simultaneously fit the auto trans peak (Itt), the auto cis peak (Icc), the trans→cis exchange peak (Itc) and the cis→trans exchange peak (Ict), respectively, as a function of τm·Itt(0) and Icc(0) are the initial intensities of the trans and cis auto peaks, respectively, a11=R1t+ktc, a22=R1c+kct, a21=−ktc, and a12=−kct. Finally, under these conditions, ktc and kct can be recast as a function of their free Keq (Pcis/Ptrans=0.33/0.67), and thus, ktc=0.33 kex and kct=0.67 kex.
GraphPad Prism version 4.0 (GraphPad Software Inc., San Diego, Calif.) was used to simultaneously fit all resolvable peaks within CD147 residues 207-214.
ZZ-exchange was used to determine the apparent catalytic exchange rate of CypA-mediated peptidyl-prolyl isomerization of CD147 Pro211, providing a quantitative analysis of the active CypA/CD147 complex (FIG. 49). Specifically, two ZZ-exchange experiments were collected using identical concentrations of 0.5 mM 15N-CD147^94-214 but with two substoichiometric concentrations of the enzyme (i.e., catalytic concentrations) of 0.01 mM (FIG. 49A) and 0.05 mM (FIG. 49B) CypA. Under each condition, the apparent exchange rate (kex), which is the sum of the apparent cis-trans (i.e., kct) and […] (i.e., ktc) catalytic rates, was determined to quantify the rate enhancement of CypA-mediated catalysis (Table 1).

rhuIL-1β: recombinant human IL-1β (R&D Systems) used as inflammatory stimulus
induction of cytoplasmic IL-32γ in Hka ([1]; ECL, cell lysates, +48 hours culture): induced highly significant (P<0.001) levels

CypA: recombinant cyclophilin A, peptidyl-prolyl isomerase enzyme ligand of CD147
kct (cis→trans catalytic rate) (CD147 Pro211; CypA:CD147 ratio of 1:10): 40 s⁻¹
ktc (trans→cis catalytic rate) (CD147 Pro211; CypA:CD147 ratio of 1:10): 20 s⁻¹
kex (s−1), apparent catalytic exchange rate (CD147 Pro211; [CypA]=0.01 mM, 25° C.): 9.6 ± 3.5 s⁻¹
kex (s−1), apparent catalytic exchange rate (CD147 Pro211; [CypA]=0.05 mM, 25° C.): 44.3 ± 8.1 s⁻¹
kex extrapolated to the 1:1 / fully bound complex (CD147 Pro211; extrapolated with the peptide Kd, 25° C.): ~6000 s⁻¹ and 4000 to 4800 s⁻¹
kex (=kct+ktc) (CD147 Pro211; substoichiometric CypA concentrations): ~60 s⁻¹

IL1ra: recombinant human IL-1 receptor antagonist (Amgen)
reversal of IL1β/TNFα-induced IL32γ gene expression in Hka ([1]; qRT-PCR, FIG. 36): reversed
